Laboratory results taken from US20210179666A1, “CYCLIC PEPTIDES AND METHODS OF USE THEREOF” (Regents of the University of Minnesota, priority 2019, published 2021).

Biological target: human melanocortin 4 receptor (human) (UniProt P32245)
Assay: cell-based or functional assay

human melanocortin 4 receptor (human), sequence (P32245 whole entry): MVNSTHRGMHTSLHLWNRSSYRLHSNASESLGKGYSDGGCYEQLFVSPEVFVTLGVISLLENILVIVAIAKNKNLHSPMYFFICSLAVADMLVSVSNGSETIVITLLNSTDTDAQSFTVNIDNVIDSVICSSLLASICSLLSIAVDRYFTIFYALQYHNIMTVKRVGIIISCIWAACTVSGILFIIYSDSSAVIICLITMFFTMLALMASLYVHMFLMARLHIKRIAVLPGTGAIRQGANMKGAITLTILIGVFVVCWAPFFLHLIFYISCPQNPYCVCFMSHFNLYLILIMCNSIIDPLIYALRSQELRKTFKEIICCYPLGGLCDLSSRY

Substance: AgRP (from UniProt O00253 87-132) (ligand)
- pA2 (Schild analysis, agonist NDP-MSH, cAMP): 8.7
